# In paper PMC9482650, “Quantitative fragmentomics allow affinity mapping of interactomes” (Nature Communications, 2022):
# T1: DLG3_1, Q92796
# T1 sequence (Q92796 125-227, limits assumed, looked up): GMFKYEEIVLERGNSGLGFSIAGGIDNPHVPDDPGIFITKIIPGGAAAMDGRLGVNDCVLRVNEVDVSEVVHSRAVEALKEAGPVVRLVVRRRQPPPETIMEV
# T2: TX1BP3, O14907
# T2 sequence (O14907 10-122, limits assumed, looked up): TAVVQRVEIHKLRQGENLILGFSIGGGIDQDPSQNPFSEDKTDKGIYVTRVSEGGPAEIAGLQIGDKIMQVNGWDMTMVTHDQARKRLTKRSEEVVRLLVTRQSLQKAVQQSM
# T3: MPP6, Q9NZW5
# T3 sequence (Q9NZW5 125-219, limits assumed, looked up): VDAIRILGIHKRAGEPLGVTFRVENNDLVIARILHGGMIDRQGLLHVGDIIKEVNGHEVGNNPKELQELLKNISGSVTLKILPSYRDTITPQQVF
# T4: PDZRN3_1, Q9UPQ7
# T4 sequence (Q9UPQ7 244-349, limits assumed, looked up): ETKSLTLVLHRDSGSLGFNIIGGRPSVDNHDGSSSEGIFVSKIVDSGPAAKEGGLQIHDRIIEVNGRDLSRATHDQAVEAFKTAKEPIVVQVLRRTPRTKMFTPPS
# T5: LIN7B, Q9HAP6
# T5 sequence (Q9HAP6 88-185, limits assumed, looked up): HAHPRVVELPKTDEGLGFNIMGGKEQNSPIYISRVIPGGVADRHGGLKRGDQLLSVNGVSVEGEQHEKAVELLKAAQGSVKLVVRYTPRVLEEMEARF
# T6: MPP2, Q14168
# T6 sequence (Q14168 180-250, limits assumed, looked up): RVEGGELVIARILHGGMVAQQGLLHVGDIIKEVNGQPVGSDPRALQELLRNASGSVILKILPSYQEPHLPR
# T7: LRRC7, Q96NW7
# T7 sequence (Q96NW7 1440-1537, limits assumed, looked up): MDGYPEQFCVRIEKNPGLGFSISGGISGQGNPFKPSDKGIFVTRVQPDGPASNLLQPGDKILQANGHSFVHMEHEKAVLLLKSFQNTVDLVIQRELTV
# T8: HTRA4, P83105
# T8 sequence (P83105 378-476, limits assumed, looked up): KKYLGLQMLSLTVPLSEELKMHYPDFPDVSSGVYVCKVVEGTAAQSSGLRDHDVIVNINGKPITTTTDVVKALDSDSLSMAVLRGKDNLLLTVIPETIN
# T9: NHERF3_4, Q5T2W1
# T9 sequence (Q5T2W1 373-468, limits assumed, looked up): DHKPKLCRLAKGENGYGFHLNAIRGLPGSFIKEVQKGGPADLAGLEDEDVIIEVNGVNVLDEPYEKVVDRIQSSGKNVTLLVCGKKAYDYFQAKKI
# T10: NHERF3_1, Q5T2W1
# T10 sequence (Q5T2W1 4-100, limits assumed, looked up): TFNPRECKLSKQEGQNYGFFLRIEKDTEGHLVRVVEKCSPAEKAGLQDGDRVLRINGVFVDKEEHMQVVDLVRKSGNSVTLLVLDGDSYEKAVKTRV
# T11: SNTB1, Q13884
# T11 sequence (Q13884 107-205, limits assumed, looked up): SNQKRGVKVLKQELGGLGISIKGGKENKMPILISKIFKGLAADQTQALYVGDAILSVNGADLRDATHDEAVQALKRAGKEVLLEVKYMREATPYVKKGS
# Tests used:
# Assay in all cases: holdup assay
# Set-up in all cases: key: below the threshold = too weak to quantify, mostly under pKd 3.1 to 4
# LDB3, O75112 = target: LDB3, O75112
# DLG3_1, Q92796 = target: T1, DLG3_1, Q92796
# DLG2_2, Q15700 = details: plain residues with an end cap or a label only (N-terminal biotin on a linker: ttds)
# TX1BP3, O14907 = target: T2, TX1BP3, O14907
# ARHGEF12, Q9NZN5-2 = details: plain residues with an end cap or a label only (N-terminal biotin on a linker: ttds)
# PDLIM1, O00151 = target: PDLIM1, O00151
# GRIP2_5, Q9C0E4 = target: GRIP2_5, Q9C0E4
# MPP6, Q9NZW5 = target: T3, MPP6, Q9NZW5
# PDZRN3_1, Q9UPQ7 = target: T4, PDZRN3_1, Q9UPQ7
# LIN7B, Q9HAP6 = target: T5, LIN7B, Q9HAP6
# MPP2, Q14168 = target: T6, MPP2, Q14168
# LRRC7, Q96NW7 = target: T7, LRRC7, Q96NW7
# MAST2, Q6P0Q8 = target: MAST2, Q6P0Q8
# HTRA4, P83105 = target: T8, HTRA4, P83105
# GRIP2_3, Q9C0E4 = target: GRIP2_3, Q9C0E4
# DLG2_3, Q15700 = target: DLG2_3, Q15700
# NHERF3_4, Q5T2W1 = target: T9, NHERF3_4, Q5T2W1
# FRMPD2_1, Q68DX3 = target: FRMPD2_1, Q68DX3
# NHERF3_1, Q5T2W1 = target: T10, NHERF3_1, Q5T2W1
# GRIP2_6, Q9C0E4 = target: GRIP2_6, Q9C0E4
# LNX1_3, Q8TBB1 = target: LNX1_3, Q8TBB1
# GORASP2, Q9H8Y8 = target: GORASP2, Q9H8Y8
# SCRIB_2, Q14160 = target: SCRIB_2, Q14160
# SNTB1, Q13884 = target: T11, SNTB1, Q13884; details: plain residues with an end cap or a label only (N-terminal biotin on a linker: ttds)
# TJP1_2, Q07157 = target: TJP1_2, Q07157
# Inadl_1, Q8NI35 = target: Inadl_1, Q8NI35
# [1] = plain residues with an end cap or a label only (N-terminal biotin on a linker: ttds)
# [2] = plain residues with an end cap or a label only (N-terminal biotin on a linker: ahx)
# Chain of PDLIM1, O00151 (O00151 1-87): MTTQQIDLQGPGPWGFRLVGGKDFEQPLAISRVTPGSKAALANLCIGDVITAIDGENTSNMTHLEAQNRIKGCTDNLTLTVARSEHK
# Chain of GRIP2_3, Q9C0E4 (Q9C0E4 238-339): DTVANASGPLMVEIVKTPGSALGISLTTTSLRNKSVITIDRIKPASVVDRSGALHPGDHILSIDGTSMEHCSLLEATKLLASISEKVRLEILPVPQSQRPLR
# Chain of GRIP2_5, Q9C0E4 (Q9C0E4 544-642): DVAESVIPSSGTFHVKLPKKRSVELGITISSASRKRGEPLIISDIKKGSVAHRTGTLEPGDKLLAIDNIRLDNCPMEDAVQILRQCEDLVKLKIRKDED
# Chain of MAST2, Q6P0Q8 (Q6P0Q8 1099-1202): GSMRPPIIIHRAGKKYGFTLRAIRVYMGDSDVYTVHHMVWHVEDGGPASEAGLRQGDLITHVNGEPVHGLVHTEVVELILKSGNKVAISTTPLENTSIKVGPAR
# Chain of LNX1_3, Q8TBB1 (Q8TBB1 500-596): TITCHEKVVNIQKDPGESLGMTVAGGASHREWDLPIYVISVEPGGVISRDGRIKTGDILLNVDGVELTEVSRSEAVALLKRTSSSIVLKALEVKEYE
# Chain of TJP1_2, Q07157 (Q07157 181-274): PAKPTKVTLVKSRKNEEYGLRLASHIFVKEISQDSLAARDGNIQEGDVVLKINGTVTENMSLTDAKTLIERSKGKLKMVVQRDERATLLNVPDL
# Chain of GRIP2_6, Q9C0E4 (Q9C0E4 648-740): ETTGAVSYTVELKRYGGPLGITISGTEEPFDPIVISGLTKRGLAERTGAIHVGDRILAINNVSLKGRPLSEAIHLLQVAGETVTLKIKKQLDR
# Chain of SCRIB_2, Q14160 (Q14160 857-960): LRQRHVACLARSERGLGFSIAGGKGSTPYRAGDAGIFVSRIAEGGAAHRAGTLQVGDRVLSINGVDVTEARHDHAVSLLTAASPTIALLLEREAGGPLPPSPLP
# Chain of ARHGEF12, Q9NZN5-2 (Q9NZN5 other isoform, or with tags, fused parts or gaps): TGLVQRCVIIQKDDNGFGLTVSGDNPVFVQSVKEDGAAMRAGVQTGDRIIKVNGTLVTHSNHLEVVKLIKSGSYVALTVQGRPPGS
# Chain of FRMPD2_1, Q68DX3 (Q68DX3 770-861): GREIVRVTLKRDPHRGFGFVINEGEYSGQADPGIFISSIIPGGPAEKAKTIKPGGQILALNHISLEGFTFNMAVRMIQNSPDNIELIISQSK
# Chain of LDB3, O75112 (O75112 1-94): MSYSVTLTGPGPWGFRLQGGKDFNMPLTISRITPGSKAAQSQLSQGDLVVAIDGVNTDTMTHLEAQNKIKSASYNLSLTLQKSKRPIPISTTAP
# Chain of Inadl_1, Q8NI35 (Q8NI35 113-229): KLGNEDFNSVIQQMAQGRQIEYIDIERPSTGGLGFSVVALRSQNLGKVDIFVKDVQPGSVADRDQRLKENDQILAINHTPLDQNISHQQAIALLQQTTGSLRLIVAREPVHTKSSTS
binder,measurement,setting,value
"PRVKPQRSKV [PPP1R13L, Q8WUF5]",pKd,"LDB3, O75112; [1]",below the threshold
same,pKd,"DLG3_1, Q92796; [1]",below the threshold
same,pKd,"DLG2_2, Q15700",below the threshold
same,pKd,"TX1BP3, O14907; [1]",3.82
same,pKd,"ARHGEF12, Q9NZN5-2",3.54
same,pKd,"PDLIM1, O00151; [1]",below the threshold
same,pKd,"GRIP2_5, Q9C0E4; [1]",below the threshold
same,pKd,"MPP6, Q9NZW5; [1]",below the threshold
same,pKd,"PDZRN3_1, Q9UPQ7; [1]",below the threshold
same,pKd,"LIN7B, Q9HAP6; [1]",below the threshold
same,pKd,"MPP2, Q14168; [1]",below the threshold
same,pKd,"LRRC7, Q96NW7; [1]",below the threshold
same,pKd,"MAST2, Q6P0Q8; [1]",3.82
same,pKd,"HTRA4, P83105; [1]",below the threshold
same,pKd,"GRIP2_3, Q9C0E4; [1]",below the threshold
same,pKd,"DLG2_3, Q15700; [1]",below the threshold
same,pKd,"NHERF3_4, Q5T2W1; [1]",below the threshold
same,pKd,"FRMPD2_1, Q68DX3; [1]",below the threshold
same,pKd,"NHERF3_1, Q5T2W1; [1]",below the threshold
same,pKd,"GRIP2_6, Q9C0E4; [1]",below the threshold
same,pKd,"LNX1_3, Q8TBB1; [1]",below the threshold
same,pKd,"GORASP2, Q9H8Y8; [1]",below the threshold
same,pKd,"SCRIB_2, Q14160; [1]",below the threshold
same,pKd,"SNTB1, Q13884",3.65
same,pKd,"TJP1_2, Q07157; [1]",below the threshold
same,pKd,"Inadl_1, Q8NI35; [1]",3.66
"EMDRRPATVV [PLCB4, Q15147]",pKd,"LDB3, O75112; [1]",below the threshold
same,pKd,"DLG3_1, Q92796; [1]",below the threshold
same,pKd,"DLG2_2, Q15700",4.23
same,pKd,"TX1BP3, O14907; [1]",3.73
same,pKd,"ARHGEF12, Q9NZN5-2",4.53
same,pKd,"PDLIM1, O00151; [1]",below the threshold
same,pKd,"GRIP2_5, Q9C0E4; [1]",below the threshold
same,pKd,"MPP6, Q9NZW5; [1]",below the threshold
same,pKd,"PDZRN3_1, Q9UPQ7; [1]",4.08
same,pKd,"LIN7B, Q9HAP6; [1]",below the threshold
same,pKd,"MPP2, Q14168; [1]",below the threshold
same,pKd,"LRRC7, Q96NW7; [1]",below the threshold
same,pKd,"MAST2, Q6P0Q8; [1]",3.89
same,pKd,"HTRA4, P83105; [1]",3.6
same,pKd,"GRIP2_3, Q9C0E4; [1]",below the threshold
same,pKd,"DLG2_3, Q15700; [1]",3.86
same,pKd,"NHERF3_4, Q5T2W1; [1]",below the threshold
same,pKd,"FRMPD2_1, Q68DX3; [1]",3.97
same,pKd,"GRIP2_6, Q9C0E4; [1]",3.67
same,pKd,"LNX1_3, Q8TBB1; [1]",below the threshold
same,pKd,"GORASP2, Q9H8Y8; [1]",4.23
same,pKd,"SCRIB_2, Q14160; [1]",below the threshold
same,pKd,"SNTB1, Q13884",4.71
same,pKd,"TJP1_2, Q07157; [1]",below the threshold
"LSDPSVSTVV [GRIN1, Q05586;Q05586-2]",pKd,"LDB3, O75112; [2]",below the threshold
same,pKd,"DLG3_1, Q92796; [2]",below the threshold
same,pKd,"TX1BP3, O14907; [2]",below the threshold
same,pKd,"PDLIM1, O00151; [2]",below the threshold
same,pKd,"GRIP2_5, Q9C0E4; [2]",below the threshold
same,pKd,"MPP6, Q9NZW5; [2]",below the threshold
same,pKd,"PDZRN3_1, Q9UPQ7; [2]",below the threshold
same,pKd,"LIN7B, Q9HAP6; [2]",below the threshold
same,pKd,"MPP2, Q14168; [2]",below the threshold
same,pKd,"LRRC7, Q96NW7; [2]",below the threshold
same,pKd,"MAST2, Q6P0Q8; [2]",4.25
same,pKd,"HTRA4, P83105; [2]",below the threshold
same,pKd,"GRIP2_3, Q9C0E4; [2]",below the threshold
same,pKd,"DLG2_3, Q15700; [2]",4.26
same,pKd,"NHERF3_4, Q5T2W1; [2]",below the threshold
same,pKd,"FRMPD2_1, Q68DX3; [2]",below the threshold
same,pKd,"NHERF3_1, Q5T2W1; [2]",below the threshold
same,pKd,"GRIP2_6, Q9C0E4; [2]",below the threshold
same,pKd,"LNX1_3, Q8TBB1; [2]",below the threshold
same,pKd,"GORASP2, Q9H8Y8; [2]",below the threshold
same,pKd,"SCRIB_2, Q14160; [2]",below the threshold
same,pKd,"TJP1_2, Q07157; [2]",below the threshold
same,pKd,"Inadl_1, Q8NI35; [2]",below the threshold
"NDPAWDETNL [ARHGEF7, Q14155;Q14155-1]",pKd,"LDB3, O75112; [1]",below the threshold
same,pKd,"DLG3_1, Q92796; [1]",below the threshold
same,pKd,"DLG2_2, Q15700",below the threshold
same,pKd,"TX1BP3, O14907; [1]",5.76
same,pKd,"ARHGEF12, Q9NZN5-2",4.03
same,pKd,"PDLIM1, O00151; [1]",below the threshold
same,pKd,"GRIP2_5, Q9C0E4; [1]",below the threshold
same,pKd,"MPP6, Q9NZW5; [1]",below the threshold
same,pKd,"PDZRN3_1, Q9UPQ7; [1]",3.92
same,pKd,"LIN7B, Q9HAP6; [1]",below the threshold
same,pKd,"MPP2, Q14168; [1]",below the threshold
same,pKd,"MAST2, Q6P0Q8; [1]",5.98
same,pKd,"HTRA4, P83105; [1]",below the threshold
same,pKd,"GRIP2_3, Q9C0E4; [1]",below the threshold
same,pKd,"DLG2_3, Q15700; [1]",below the threshold
same,pKd,"NHERF3_4, Q5T2W1; [1]",below the threshold
same,pKd,"FRMPD2_1, Q68DX3; [1]",below the threshold
same,pKd,"NHERF3_1, Q5T2W1; [1]",4.26
same,pKd,"GRIP2_6, Q9C0E4; [1]",below the threshold
same,pKd,"LNX1_3, Q8TBB1; [1]",below the threshold
same,pKd,"GORASP2, Q9H8Y8; [1]",below the threshold
same,pKd,"SCRIB_2, Q14160; [1]",4.68
same,pKd,"SNTB1, Q13884",4.26
same,pKd,"TJP1_2, Q07157; [1]",below the threshold
